{"source": "patent US20170252403A1", "about": "“METHODS AND COMPOSITIONS FOR TREATING RETINAL DISORDERS” (AMARANTUS BIOSCIENCE HOLDINGS, INC., priority 2014, published 2017)", "key": {"[1]": {"test_system": "retinal function after transient retinal ischemia (optic nerve clamping)", "assay": "Electroretinography (ERG a-wave/b-wave amplitude) after retinal ischemia by optic nerve clamping", "description": "(§1) In this Example, retinal ischemia was induced by transient vascular clamping of the optic nerve in the right eyes of Sprague Dawley albino rats for 45 min. Reperfusion was initiated by the release of the clamp. Retinal function was evaluated by ERG at baseline and 7 days after ischemia. RGC survival was assessed by immunohistochemistry 7 days after ischemia.\n(§2) Retinal ischemia was induced by vascular clamping of the optic nerve in the right eyes for 45 min. Reperfusion was initiated by the release of the clamp. Retinal function was evaluated by electroretinography (ERG) at baseline and 7 days after ischemia. Retinal Ganglion Cell (RGC) survival was assessed by immunohistology 7 days after ischemia.\nThe functional status of the retina was evaluated by electroretinography one week after the ischemic insult and compared to baseline values determined just prior to optic nerve ischemia. The b-wave is induced by potassium efflux shunted from activated bipolar cells by Müller cells and is an electrophysiological indicator of inner retinal signal transmission. The ERG parameters applied were the following: Color: white maximum; Maximum intensity: 2.6 cd·s/m2 (0 dB); Duration 0.24 ms; Numbers of flashes: 1; Filter: 50 Hz; Impedance threshold: 90 kΩ.\nTest and control items were injected intravitreally (4 μL) in right eye from anesthetized rat using a mix of xylazine/ketamine and a 30-G needle mounted on a syringe, immediately after reperfusion.\nReference item was intraperitoneally dosed using a 0.5 mL/kg volume of administration, 30 min before induction.\nRight eyes underwent a temporal orbitectomy combined with periorbital stripping. The globe remained in the orbit and was completely isolated on a pedicle consisting of the optic nerve, ophthamociliary arteries and the venous outflow. A clamp placed around the pedicle initiated the global ocular ischemia when tightened.\nIschemia was maintained for 45 minutes. The reperfusion period was initiated by the release of the clamp.\nERG was recorded before ischemia (baseline) and 7 days after reperfusion in both eyes. The a-wave and b-wave amplitudes (μV) were measured for each ERG; the a-wave and b-wave amplitudes as a percentage of the baseline values obtained before ischemia. […] Mydriaticum (0.5% tropicamide) were instilled for pupillary dilatation.\nERG parameters: • Color: white maximum. • Maximum intensity: 2.6 cd·s/m2 (0 dB); Duration 0.24 ms; number of flash: 1. • Filter: 50 Hz. • Impedance Threshold: 90 kΩ."}, "[2]": {"test_system": "primary mixed cortical/hippocampal neuronal cultures", "conditions": "cultures exposed to the ER stressor tunicamycin; cited from earlier work"}, "[3]": {"assay": "General behavior and body weight in the rat retinal ischemia study", "conditions": "for Body weight, sacrifice day, mean: Day 7, group mean", "description": "The body weight of all animals was recorded before the start of the study, on Day 0 and at the end of the study (Day 7).\nEach day, the general behavior and the aspect of all animals were observed."}, "[4]": {"test_system": "eyes of pigmented rabbits", "assay": "15-day ocular tolerance study after single intravitreal administration", "type": "in vivo, pigmented rabbit", "conditions": "MANF 3 mg/mL, 100 μL single intravitreal", "excerpt": "Ten female pigmented rabbits were divided into two groups of five animals each, corresponding to both treatments.\nThe eyes of the animals were examined by Split-lamp and assessed by using the McDonald-Shadduck's scale at Baseline and at Days 1, 3, 8 and 15. At the end of the in-life period on Day 15 both eyeballs of all animals were collected and processed for histology and microscopic examination."}, "[5]": {"test_system": "ischemia of the brain (tMCAO)", "conditions": "cited from earlier work"}, "[6]": {"test_system": "retinal ganglion cells (RGC)", "assay": "Retinal ganglion cell survival (Brn3a immunohistochemistry on flat-mounted retinas) after retinal ischemia;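 as to all read-outs here: sprague Dawley rats, right optic nerve vessels clamped 45 min then reperfused, Brn3a-stained RGC counted on flat-mounted retinas in cells/mm^2, 8 fields per retina, uninjured left eyes as naive controls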", "conditions": "for Alive cells (BrN3A positive) in right eye, group Mean / Alive cells (BrN3A positive) in right eye, individual mean cells/mm^2: right injured eye; for Alive cells (BrN3A positive) in right eye, group Mean / Alive cells (BrN3A positive) in right eye, individual mean cells/mm^2 / RGC density, alive cells (BrN3A positive) in right eye: 7 days after ischemia; for Alive cells (BrN3A positive) in right eye, individual mean cells/mm^2: individual rats; for RGC density, alive cells (BrN3A positive) in right eye: 4 μL intravitreal once after reperfusion; for Alive cells (BrN3A positive) in right eye, group Mean / RGC density, alive cells (BrN3A positive) in right eye: group mean", "description": "as §1, §2\nTo assess the effect of the treatment on RGC viability, the RGC density was evaluated 7 days after ischemia by immunohistochemistry with a stain for the RGC specific marker Brn3a.\nAfter euthanasia, the right eyeballs were fixed in Formalin 4% (24 h at 4° C.), dissected and retinas were flat mounted. Two left eyes retinas per group were sampled and processed the same as the right eye retinas. They served as naïve controls. The flat mounted preparations were stained with an Alexa 594 conjugated anti-BRN3A (Brain-specific hoeobox/POU domain protein 3A, Chemicon, cat #mAb1585) to label RGC. Fluorescence images were recorded with Apotome microscope at magnification ×10 (Zeiss). RGC were counted with Image J software in 8 locations for each retina area (2 pictures per quarter). The cell count was reported in cell/mm^2."}, "[7]": {"conditions": "MANF 1.5 mg/mL intravitreal, treated right (ischemic) eye, individual rats"}}, "note": "Where “and” joins values, the source holds several entries; their conditions need not be identical. Identical values can stand only once. Entries after “also recorded” stand apart in the source; their conditions may differ. Like-named read-outs stand apart in the source and are kept apart here.", "data": [{"molecule": "mesencephalic astrocyte-derived neurotrophic factor (protein) GRFYQDLKDRDVTFSPATIENELIKFCREARGKENRLCYYIGATDDAATKIINEVSKPLAHHIPVEKICEKLKKKDSQICELKYDKQIDLSTVDTKKLRVKELKKILDDWGETCKGCAEKSDYIRKINELMPKYAPKAASARTDL", "values": [{"measurement": "A-wave amplitude (μV), treated right eye", "setting": "[1]; MANF 0.5 mg/mL intravitreal, Day 7, group mean", "value": "−268.9", "unit": "μV"}, {"measurement": "A-wave Amplitude (μV) Day 7", "setting": "[1]; [7]", "value": "−254 μV and −299 μV and −255 μV"}, {"measurement": "B-wave Amplitude (μV) Day 7", "setting": "[1]; [7]", "value": "426 μV and 456 μV"}, {"measurement": "Protection against tunicamycin (TUNEL-positive cells as marker of apoptosis)", "setting": "[2]", "value": "fully protected"}, {"measurement": "Body weight, sacrifice day, mean", "setting": "[3]; MANF 0.15 mg/mL intravitreal", "value": 343, "unit": "g"}, {"measurement": "Body weight, sacrifice day, mean", "setting": "[3]; MANF 0.5 mg/mL intravitreal", "value": 345, "unit": "g"}, {"measurement": "Body weight, sacrifice day, mean", "setting": "[3]; MANF 1.5 mg/mL intravitreal", "value": 347, "unit": "g"}, {"measurement": "General behavior and appearance", "setting": "[3]; daily observation during the study period, regardless the dose", "value": "not altered"}, {"measurement": "Effects on body weight, clinical observations or ophthalmic examinations", "setting": "[4]; right eye, 15 days, McDonald-Shadduck scale", "value": "no treatment- or administration-related effects"}, {"measurement": "Ocular tolerance", "setting": "[4]; 15 days", "value": "macroscopically and microscopically well tolerated"}, {"measurement": "Histopathology evaluation of the eyes", "setting": "[4]; Day 15", "value": "No pathological findings related to treatment"}, {"measurement": "Reduction of infarct size", "setting": "[5]; MANF expressed in the cortex using an AAV-based vector", "value": 40, "unit": "%"}, {"measurement": "Reduction of infarct size", "setting": "[5]; day 2, compared to vehicle treated animals", "value": 50, "unit": "%"}, {"measurement": "Alive cells (BrN3A positive) in right eye, group Mean", "setting": "[6]; MANF 0.15 mg/mL intravitreal", "value": 402.8, "unit": "cells/mm^2"}, {"measurement": "Alive cells (BrN3A positive) in right eye, individual mean cells/mm^2", "setting": "[6]; MANF 0.15 mg/mL intravitreal", "value": "469 cells/mm^2 and 722 cells/mm^2 and 636 cells/mm^2 and 471 cells/mm^2 and 456 cells/mm^2 and 374 cells/mm^2 and 161 cells/mm^2 and 432 cells/mm^2 and 408 cells/mm^2 and 448 cells/mm^2 and 47 cells/mm^2 and 210 cells/mm^2"}, {"measurement": "RGC density, alive cells (BrN3A positive) in right eye", "setting": "[6]; MANF 0.15 mg/mL", "value": "403±189 cells/mm^2 and 402.8 cells/mm^2"}, {"measurement": "Alive cells (BrN3A positive) in right eye, group Mean", "setting": "[6]; MANF 0.5 mg/mL intravitreal", "value": 464.9, "unit": "cells/mm^2"}, {"measurement": "Alive cells (BrN3A positive) in right eye, individual mean cells/mm^2", "setting": "[6]; MANF 0.5 mg/mL intravitreal", "value": "512 cells/mm^2 and 443 cells/mm^2 and 613 cells/mm^2 and 364 cells/mm^2 and 379 cells/mm^2 and 549 cells/mm^2 and 336 cells/mm^2 and 97 cells/mm^2 and 249 cells/mm^2 and 1209 cells/mm^2 and 105 cells/mm^2 and 724 cells/mm^2"}, {"measurement": "RGC density, alive cells (BrN3A positive) in right eye", "setting": "[6]; MANF 0.5 mg/mL", "value": "465±301 cells/mm^2 and 464.9 cells/mm^2"}, {"measurement": "Alive cells (BrN3A positive) in right eye, group Mean", "setting": "[6]; MANF 1.5 mg/mL intravitreal", "value": 487.7, "unit": "cells/mm^2"}, {"measurement": "Alive cells (BrN3A positive) in right eye, individual mean cells/mm^2", "setting": "[6]; MANF 1.5 mg/mL intravitreal", "value": "546 cells/mm^2 and 378 cells/mm^2 and 549 cells/mm^2 and 723 cells/mm^2 and 536 cells/mm^2 and 974 cells/mm^2 and 197 cells/mm^2 and 543 cells/mm^2 and 488 cells/mm^2 and 260 cells/mm^2 and 342 cells/mm^2 and 316 cells/mm^2"}, {"measurement": "RGC density, alive cells (BrN3A positive) in right eye", "setting": "[6]; MANF 1.5 mg/mL", "value": "488±214 cells/mm^2 and 488±14 cells/mm^2 and 487.7 cells/mm^2"}, {"measurement": "Protection of RGC, in words", "setting": "[6]; single intravitreal MANF at 0.15, 0.5 and 1.5 mg/mL, one-week reperfusion", "value": "a trend in protecting RGCs; also recorded: protecting RGC"}]}]}
